Test results taken from patent US20190241886A1 (ADAGENE, published 2019).
Residue numbers refer to the chain shown, from its start.

T1: Recombinant human CTLA4-Fc (human, UniProt P16410 36-161, limits assumed)
T1 construct: Coated on the ELISA plate at 1 ug/mL; also called antigen; not shown: Fc part
T1 sequence (looked up): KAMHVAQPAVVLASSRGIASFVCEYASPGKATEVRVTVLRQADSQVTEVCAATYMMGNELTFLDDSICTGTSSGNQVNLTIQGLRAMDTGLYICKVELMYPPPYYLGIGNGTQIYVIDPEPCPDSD

B1: TY22404 (as listed in Tables 11 and 14) (antibody, V domains shown)
VH: EVQLVESGGGLVQPGGSLRLSCAASGYSISSGYHWSWIRQAPGKGLEWLARIDWDDDKYYSTSLKSRLTISRDNSKNTLYLQLNSLRAEDTAVYYCARSYVYFDYWGQGTLVTVSS
VL: EVGSYPNPSSDCVPYYYACAYSGRSAGGGGTPLGLAGSGGSDIQLTQSPSSLSASVGDRVTITCRASQSVRGRFLAWYQQKPGKAPKLLIYDASNRATGIPSRFSGSGSGTDFTLTISSLQPEDFATYYCQQSSSWPPTFGQGTKVEIKR
notes: kept apart from m5; Expressed in mammalian cells; isotype not restated
B2: TY22402 (as listed in Table 11) (antibody, V domains shown)
VH: B1 VH
VL: EVGSYIVHHSDCDAFYPYCDSSGRSAGGGGTPLGLAGSGGSDIQLTQSPSSLSASVGDRVTITCRASQSVRGRFLAWYQQKPGKAPKLLIYDASNRATGIPSRFSGSGSGTDFTLTISSLQPEDFATYYCQQSSSWPPTFGQGTKVEIKR
notes: kept apart from m3; Expressed in mammalian cells; isotype not restated
B3: TY22404 (antibody, IgG1, V domains shown)
VH: B1 VH
VL: B1 VL with T31S
notes: IgG1 from HEK293F cells, uncleaved; also called peptide name B13197
B4: TY22401 (antibody, V domains shown)
VH: B1 VH
VL: EVGSYNFVADSCPDHPYPCSASGRSAGGGGSPLGLAGSGGSDIQLTQSPSSLSASVGDRVTITCRASQSVRGRFLAWYQQKPGKAPKLLIYDASNRATGIPSRFSGSGSGTDFTLTISSLQPEDFATYYCQQSSSWPPTFGQGTKVEIKR
notes: IgG1 from HEK293F cells, uncleaved; also called peptide name B13189
B5: TY22402 (antibody, IgG1, V domains shown)
VH: B1 VH
VL: B2 VL with T31S
notes: IgG1 from HEK293F cells, uncleaved; also called peptide name B13180
B6: TY22566 (antibody, V domains shown)
VH: B1 VH
VL: B1 VL with S9A, T31S
notes: IgG1, uncleaved; mask derived from B13192 or B13197 to remove a potential glycosylation site
B7: TY22563 (antibody, V domains shown)
VH: B1 VH
VL: B2 VL with I6Y, V7S, H8A, H9Y, S10P, D11A, A14S, F15H, D20Q, T31S
notes: as for B6
B8: TY22564 (antibody, V domains shown)
VH: B1 VH
VL: EVGSYYSAYPACDSHYPYCNSAGRSAGGGGSPLGLAGSGGSDIQLTQSPSSLSASVGDRVTITCRASQSVRGRFLAWYQQKPGKAPKLLIYDASNRATGIPSRFSGSGSGTDFTLTISSLQPEDFATYYCQQSSSWPPTFGQGTKVEIKR
notes: as for B6
B9: TY22565 (antibody, V domains shown)
VH: B1 VH
VL: B1 VL with N7Q, T31S
notes: as for B6
B10: TY21242 (antibody, V domains shown)
VH: EVQLVESGGGLVQPGGSLRLSCAASGFSLSTGGVGVGWIRQAPGKGLEWLALIDWADDKYYSPSLKSRLTISRDNSKNTLYLQLNSLRAEDTAVYYCARGGSDTVIGDWFAYWGQGTLVTVSS
VL: DIQLTQSPSSLSASVGDRVTITCRASQSIGSYLAWYQQKPGKAPKLLIYDASNLETGVPSRFSGSGSGTDFTLTISSLQPEDFATYYCQQGYYLWTFGQGTKVEIK
notes: Anti-human-CD137 antibody; the isotype of the parent is not restated; also called parental antibody TY21242; parental CD137 antibody
B11: TY22591 (antibody, V domains shown)
VH: B10 VH
VL: EVGSYSSTHAHCHHSPANCISSGRSAGGGGSPLGLAGSGGSDIQLTQSPSSLSASVGDRVTITCRASQSIGSYLAWYQQKPGKAPKLLIYDASNLETGVPSRFSGSGSGTDFTLTISSLQPEDFATYYCQQGYYLWTFGQGTKVEIK
notes: Full IgG4 expressed in mammalian cells, uncleaved
B12: TY22598 (antibody, V domains shown)
VH: B10 VH
VL: EVGSYSNNFASCLWRHRSCADSGRSAGGGGSPLGLAGSGGSDIQLTQSPSSLSASVGDRVTITCRASQSIGSYLAWYQQKPGKAPKLLIYDASNLETGVPSRFSGSGSGTDFTLTISSLQPEDFATYYCQQGYYLWTFGQGTKVEIK
notes: as for B11
B13: TY22596 (antibody, V domains shown)
VH: B10 VH
VL: EVGSYYHDYDDCRVLPRRCFNSGRSAGGGGSPLGLAGSGGSDIQLTQSPSSLSASVGDRVTITCRASQSIGSYLAWYQQKPGKAPKLLIYDASNLETGVPSRFSGSGSGTDFTLTISSLQPEDFATYYCQQGYYLWTFGQGTKVEIK
notes: as for B11
B14: TY22586 (antibody, V domains shown)
VH: B10 VH
VL: EVGSYPTDLDACADAPNHCHFSGRSAGGGGSPLGLAGSGGSDIQLTQSPSSLSASVGDRVTITCRASQSIGSYLAWYQQKPGKAPKLLIYDASNLETGVPSRFSGSGSGTDFTLTISSLQPEDFATYYCQQGYYLWTFGQGTKVEIK
notes: as for B11
B15: TY22594 (antibody, V domains shown)
VH: B10 VH
VL: B13 VL with Y6D, H7T, D11F, R13P, V14I, P16R, R17H, F20D, N21S
notes: as for B11
B16: TY22599 (antibody, V domains shown)
VH: B10 VH
VL: B13 VL with Y6T, H7D, D8N, D11Y, R13P, V14R, P16R, R18K, F20Y, N21H
notes: as for B11
B17: TY22595 (antibody, V domains shown)
VH: B10 VH
VL: EVGSYNDYNYHCKWRPSRCHNSGRSAGGGGSPLGLAGSGGSDIQLTQSPSSLSASVGDRVTITCRASQSIGSYLAWYQQKPGKAPKLLIYDASNLETGVPSRFSGSGSGTDFTLTISSLQPEDFATYYCQQGYYLWTFGQGTKVEIK
notes: as for B11

What follows are binders tested against T1, Recombinant human CTLA4-Fc (assay: ELISA EC50 divided by EC50 of parental TY21580 (FIG. 25)).
Protocol: (§1) Recombinant human CTLA4-Fc was diluted to 1μg/mL in PBS and coated on a Maxisorp plate at 4° C. overnight. Plates were blocked with PBS supplemented with 3% non-fat milk at 37° C. for 1 hour. After washing, 100 μL of 3-fold serial dilutions of antibodies were added to each well. After incubation at 37° C. for 1 hour, plates were washed four times, and 100 μL HRP conjugated anti-human IgG (Fab specific) (1:6000 dilution) was added to each well. Plates were incubated at 37° C. for 1 hour, washed four times, and then 50 μL TMB substrate solution was added to each well, and the plate was incubated at room temperature. Absorbance at 450 nm was measured after the reactions were stopped with 50 μL H₂SO₄ per well. The EC₅₀ was evaluated by fitting the ELISA data using the asymmetrical sigmoidal (five-parameter logistic equation) model of GraphPad Prism 6 software.
In the case of B1, the Masking efficiency is reported as 469.

What follows are binders tested against T1, Recombinant human CTLA4-Fc (assay: ELISA EC50 divided by EC50 of parental TY21580 (FIG. 24A)).
Protocol: as §1
B2 gave a Masking efficiency of 243.
B1 gave a Masking efficiency of 308.

What follows are binders tested against T1, Recombinant human CTLA4-Fc (assay: ELISA EC50 divided by EC50 of parental TY21580 (FIG. 24B)).
Protocol: as §1
In the case of B2, the Masking efficiency is reported as 554.
In the case of B1, the Masking efficiency is reported as 572.

These binders were tested against T1, Recombinant human CTLA4-Fc (assay: ELISA EC50 divided by EC50 of parental TY21580, data batch 1).
Protocol: as §1
With B3 the Masking efficiency was 826.
With B4 the Masking efficiency was 110.
With B5 the Masking efficiency was 2210.

The binders below were run against T1, Recombinant human CTLA4-Fc (assay: ELISA EC50 divided by EC50 of parental TY21580, data batch 2).
Protocol: as §1
B3 showed a Masking efficiency of 385.
Binder B4 has a Masking efficiency of 48.
In the case of B5, the Masking efficiency is reported as 377.

The binders below were run against T1, Recombinant human CTLA4-Fc (assay: ELISA EC50 divided by EC50 of parental TY21580, third block of Table 6).
Protocol: as §1
For B6, the Masking efficiency was 489.
With B7 the Masking efficiency was 144.
In the case of B8, the Masking efficiency is reported as 117.
B9 showed a Masking efficiency of 632.

What follows are binders tested against T2, Human CD137 displayed on yeast cells (human, UniProt Q07011 24-186, limits assumed) (assay: flow cytometry on yeast cells displaying human CD137; ratio to parental TY21242).
T2 construct: Yeast cells displaying human CD137, stained with serial dilutions of antibody; also called human CD137 on the cell surface
Protocol: (§2) The masking efficiency was then measured through flow cytometry. Briefly, yeast cells displaying human CD137 on their surface washed twice with PB SA buffer, and 50 μL (1×10̂6) cells were dispensed into each well of a 96 well plate. Cells were then incubated with 3-fold serial dilutions of antibodies for 1 hour on ice, washed once with PBSA buffer, and then incubated with 100 μL of PE conjugated mouse anti-human Fc (1 μg/ml) for 30 minutes on ice. The cells were then washed once prior to analysis by flow cytometry (Beckman® CytoFlex).
With B10 the Masking efficiency was 1.
Work on B11 yielded a Masking efficiency of 38.3.
Work on B12 yielded a Masking efficiency of 30.5.
Binder B13 has a Masking efficiency of 20.8.
B14 was tested, and the Masking efficiency was 300 fold.
Binder B15 has a Masking efficiency of 83.7.
B16 was tested, and the Masking efficiency was 348.
B17 gave a Masking efficiency of 379.

Each binder was assayed against T2, Human CD137 displayed on yeast cells (assay: flow cytometry on yeast cells displaying human CD137; column headed EC50 / KD (nM)).
Protocol: as §2
In the case of B10, the EC50 is reported as 0.28 nM.
Work on B11 yielded an EC50 of 10.8 nM.
B12 was tested, and the EC50 was 8.61 nM.
With B13 the EC50 was 5.86 nM.
B15 showed an EC50 of 23.6 nM.
B16 was tested, and the EC50 was 98.1 nM.
In the case of B17, the EC50 is reported as 107 nM.
